Starred links: 1 amine or outer side, 2 acyl side, 3 side chain; linkers in the order of their positions; H or OH if unused. Positions of bridges follow the written chain, without caps; N, C: chain ends. Non-standard residues stand in square brackets, D forms with d. Primed or numbered codes have the meaning given here. *: point of attachment. Af3(DImAc) = 3-aminophenylalanine acylated on the ring amine with 2-{2,5-dioxo-octahydroimidazo[4,5-d]imidazolidin-1-yl}acetic acid, O=C(CN1C(=O)NC2NC(=O)NC21)Nc1cccc(C[C@H](N[*:1])C(=O)[*:2])c1; Af3(HySuc) = 3-amino-L-phenylalanine acylated on the ring amine with 2-(3,6-dioxo-1,2,3,6-tetrahydropyridazin-4-yl)acetic acid, O=C(Cc1cc(=O)[nH][nH]c1=O)Nc1cccc(C[C@H](N[*:1])C(=O)[*:2])c1; af3(ac-glu) = lower case: 3-amino-D-phenylalanine, ring amine acylated with N-acetyl-D-glutamic acid, CC(=O)N[C@H](CCC(=O)[*:3])C(=O)Nc1cccc(C[C@@H](N[*:1])C(=O)[*:2])c1; af3(ac-asp) = lower case: 3-amino-D-phenylalanine, ring amine acylated with N-acetyl-D-aspartic acid, CC(=O)N[C@H](CC(=O)[*:3])C(=O)Nc1cccc(C[C@@H](N[*:1])C(=O)[*:2])c1; Af3(TzPr) = 3-amino-L-phenylalanine acylated on the ring amine with 3-(1H-1,2,4-triazol-3-yl)propanoic acid, O=C(CCc1nc[nH]n1)Nc1cccc(C[C@H](N[*:1])C(=O)[*:2])c1; Af3(Ac-Glu) = 3-aminophenylalanine acylated on the ring amine with N-acetyl-glutamic acid, CC(=O)N[C@@H](CCC(=O)[*:3])C(=O)Nc1cccc(C[C@H](N[*:1])C(=O)[*:2])c1; Aph(HO-Succinyl) = 4-aminophenylalanine acylated on the ring amine with succinic acid (free carboxyl), O=C(CCC(=O)[*:3])Nc1ccc(C[C@H](N[*:1])C(=O)[*:2])cc1; Af3(Ac-Asp) = 3-aminophenylalanine acylated on the ring amine with N-acetyl-aspartic acid; APAc″ = 2-(4-(amino)piperidin-1-yl)acetic acid, NC1CCN(CC(=O)*)CC1; DOTA = O=C(O)CN1CCN(CC(=O)O)CCN(CC(=O)*)CCN(CC(=O)O)CC1; mXylylene = c1cc(C[*:1])cc(C[*:2])c1; βAla = NCCC(=O)O; Sar = CNCC(=O)O

We go through 17 molecules from patent US20250339569A1 (3B PHARMACEUTICALS, published 2025).

The labels stand for the following.
B1: 3BP-3045 (peptide)
peptide: Ac-VYC[dE]GDWLTWQC-NH2
modifications: linker 3-12 via mXylylene
SMILES: CC(=O)N[C@H](C(=O)N[C@@H](Cc1ccc(O)cc1)C(=O)N[C@H]1CSCc2cccc(c2)CSC[C@@H](C(N)=O)NC(=O)[C@H](CCC(N)=O)NC(=O)[C@H](Cc2c[nH]c3ccccc23)NC(=O)[C@H]([C@@H](C)O)NC(=O)[C@H](CC(C)C)NC(=O)[C@H](Cc2c[nH]c3ccccc23)NC(=O)[C@H](CC(=O)O)NC(=O)CNC(=O)[C@@H](CCC(=O)O)NC1=O)C(C)C
B2: 3BP-3604 (peptide)
peptide: Ac-VY[dC][βAla]WLTWSC-NH2
modifications: linker 3-10 via mXylylene
SMILES: CC(=O)N[C@H](C(=O)N[C@@H](Cc1ccc(O)cc1)C(=O)N[C@@H]1CSCc2cccc(c2)CSC[C@@H](C(N)=O)NC(=O)[C@H](CO)NC(=O)[C@H](Cc2c[nH]c3ccccc23)NC(=O)[C@H]([C@@H](C)O)NC(=O)[C@H](CC(C)C)NC(=O)[C@H](Cc2c[nH]c3ccccc23)NC(=O)CCNC1=O)C(C)C
notes: also called Ac-Val-Tyr-[cys(3mebn)-Bal-Trp-Leu-Thr-Trp-Ser-Cys]-NH2
B3: 3BP-3055 (peptide)
peptide: Ac-VYCEGDWATWQC-NH2
modifications: linker 3-12 via mXylylene
SMILES: CC(=O)N[C@H](C(=O)N[C@@H](Cc1ccc(O)cc1)C(=O)N[C@H]1CSCc2cccc(c2)CSC[C@@H](C(N)=O)NC(=O)[C@H](CCC(N)=O)NC(=O)[C@H](Cc2c[nH]c3ccccc23)NC(=O)[C@H]([C@@H](C)O)NC(=O)[C@H](C)NC(=O)[C@H](Cc2c[nH]c3ccccc23)NC(=O)[C@H](CC(=O)O)NC(=O)CNC(=O)[C@H](CCC(=O)O)NC1=O)C(C)C
B4: 3BP-3309 (peptide)
peptide: Ac-VYCE[Sar]DWL[dA]WQC-NH2
modifications: linker 3-12 via mXylylene
SMILES: CC(=O)N[C@H](C(=O)N[C@@H](Cc1ccc(O)cc1)C(=O)N[C@H]1CSCc2cccc(c2)CSC[C@@H](C(N)=O)NC(=O)[C@H](CCC(N)=O)NC(=O)[C@H](Cc2c[nH]c3ccccc23)NC(=O)[C@@H](C)NC(=O)[C@H](CC(C)C)NC(=O)[C@H](Cc2c[nH]c3ccccc23)NC(=O)[C@H](CC(=O)O)NC(=O)CN(C)C(=O)[C@H](CCC(=O)O)NC1=O)C(C)C
notes: also called Ac-Val-Tyr-[Cys(3MeBn)-Glu-Nmg-Asp-Trp-Leu-ala-Trp-Gln-Cys]-NH2
B5: 3BP-3048 (peptide)
peptide: Ac-VYCEGDW[dL]TWQC-NH2
modifications: linker 3-12 via mXylylene
SMILES: CC(=O)N[C@H](C(=O)N[C@@H](Cc1ccc(O)cc1)C(=O)N[C@H]1CSCc2cccc(c2)CSC[C@@H](C(N)=O)NC(=O)[C@H](CCC(N)=O)NC(=O)[C@H](Cc2c[nH]c3ccccc23)NC(=O)[C@H]([C@@H](C)O)NC(=O)[C@@H](CC(C)C)NC(=O)[C@H](Cc2c[nH]c3ccccc23)NC(=O)[C@H](CC(=O)O)NC(=O)CNC(=O)[C@H](CCC(=O)O)NC1=O)C(C)C
notes: also called Ac-Val-Tyr-[Cys(3MeBn)-Glu-Gly-Asp-Trp-leu-Thr-Trp-Gln-Cys]-NH2
B6: 3BP-3047 (peptide)
peptide: Ac-VYCEG[dD]WLTWQC-NH2
modifications: linker 3-12 via mXylylene
SMILES: CC(=O)N[C@H](C(=O)N[C@@H](Cc1ccc(O)cc1)C(=O)N[C@H]1CSCc2cccc(c2)CSC[C@@H](C(N)=O)NC(=O)[C@H](CCC(N)=O)NC(=O)[C@H](Cc2c[nH]c3ccccc23)NC(=O)[C@H]([C@@H](C)O)NC(=O)[C@H](CC(C)C)NC(=O)[C@H](Cc2c[nH]c3ccccc23)NC(=O)[C@@H](CC(=O)O)NC(=O)CNC(=O)[C@H](CCC(=O)O)NC1=O)C(C)C
notes: also called Ac-Val-Tyr-[Cys(3MeBn)-Glu-Gly-asp-Trp-Leu-Thr-Trp-Gln-Cys]-NH2
B7: 3BP-3044 (peptide)
peptide: Ac-V[dY]CEGDWLTWQC-NH2
modifications: linker 3-12 via mXylylene
SMILES: CC(=O)N[C@H](C(=O)N[C@H](Cc1ccc(O)cc1)C(=O)N[C@H]1CSCc2cccc(c2)CSC[C@@H](C(N)=O)NC(=O)[C@H](CCC(N)=O)NC(=O)[C@H](Cc2c[nH]c3ccccc23)NC(=O)[C@H]([C@@H](C)O)NC(=O)[C@H](CC(C)C)NC(=O)[C@H](Cc2c[nH]c3ccccc23)NC(=O)[C@H](CC(=O)O)NC(=O)CNC(=O)[C@H](CCC(=O)O)NC1=O)C(C)C
B8: 3BP-3325 (peptide)
peptide: Ac-CE[Sar]DWLTWQC-NH2
modifications: linker 1-10 via mXylylene
SMILES: CC(=O)N[C@H]1CSCc2cccc(c2)CSC[C@@H](C(N)=O)NC(=O)[C@H](CCC(N)=O)NC(=O)[C@H](Cc2c[nH]c3ccccc23)NC(=O)[C@H]([C@@H](C)O)NC(=O)[C@H](CC(C)C)NC(=O)[C@H](Cc2c[nH]c3ccccc23)NC(=O)[C@H](CC(=O)O)NC(=O)CN(C)C(=O)[C@H](CCC(=O)O)NC1=O
notes: also called Ac-[Cys(3MeBn)-Glu-Nmg-Asp-Trp-Leu-Thr-Trp-Gln-Cys]-NH2
B9: 3BP-2836 (peptide)
peptide: Ac-MVYCEGDWLTWQC-NH2
modifications: linker 4-13 via mXylylene
SMILES: CSCC[C@H](NC(C)=O)C(=O)N[C@H](C(=O)N[C@@H](Cc1ccc(O)cc1)C(=O)N[C@H]1CSCc2cccc(c2)CSC[C@@H](C(N)=O)NC(=O)[C@H](CCC(N)=O)NC(=O)[C@H](Cc2c[nH]c3ccccc23)NC(=O)[C@H]([C@@H](C)O)NC(=O)[C@H](CC(C)C)NC(=O)[C@H](Cc2c[nH]c3ccccc23)NC(=O)[C@H](CC(=O)O)NC(=O)CNC(=O)[C@H](CCC(=O)O)NC1=O)C(C)C
B10: 3BP-4362 (peptide)
peptide: {DOTA-APAc″}-VYCE[dP]D[af3(ac-glu)]LTWSC-NH2
modifications: linker 3-12 via mXylylene; not fully specified
B11: 3BP-4364 (peptide)
peptide: {DOTA-APAc″}-VYCE[dP]D[af3(ac-asp)]LTWSC-NH2
modifications: linker 3-12 via mXylylene; not fully specified
B12: 3BP-4361 (peptide)
peptide: {DOTA-APAc″}-VYCE[dP]D[Af3(Ac-Glu)]LTWSC-NH2
modifications: linker 3-12 via mXylylene
B13: 3BP-4356 (peptide)
peptide: {DOTA-APAc″}-VYCE[dP]D[Aph(HO-Succinyl)]LTWSC-NH2
modifications: linker 3-12 via mXylylene
B14: 3BP-4341 (peptide)
peptide: {DOTA-APAc″}-VYCE[dP]D[Af3(DImAc)]LTWSC-NH2
modifications: linker 3-12 via mXylylene
B15: 3BP-4322 (peptide)
peptide: {DOTA-APAc″}-VYCE[dP]D[Af3(HySuc)]LTWSC-NH2
modifications: linker 3-12 via mXylylene
B16: 3BP-4324 (peptide)
peptide: {DOTA-APAc″}-VYCE[dP]D[Af3(TzPr)]LTWSC-NH2
modifications: linker 3-12 via mXylylene
B17: 3BP-4363 (peptide)
peptide: {DOTA-APAc″}-VYCE[dP]D[Af3(Ac-Asp)]LTWSC-NH2
modifications: linker 3-12 via mXylylene

The first assay deals with human carbonic anhydrase 9 (CAIX) (human, UniProt Q16790 38-459). The assay can be described thus: FACS competition on HT-29 cells against tracer 3BP-2776; pIC50 category C = pIC50 6.1-7.0. On the procedure:
(§1) CAIX-expressing human HT-29 colorectal cancer cells (DSMZ, RRID: CVCL_0320) were cultured in McCoys's 5A modified medium (Biochrom, #F1015) including 10% fetal calf serum (FCS), 2 mM L-glutamine, 100 U/ml penicillin and 100 μg/mL streptomycin. Cells were detached with Accutase (Biolegend, #423201) and washed in FACS buffer (PBS including 1% FCS). Cells were diluted in FACS buffer to a final concentration of 500.000 cells per ml. 200 μL of the cell suspension were transferred to a u-shaped non-binding 96-well plate (Greiner) and cells were washed in ice-cold FACS buffer.
(§2) When biotinylated compounds were used an additional incubation step with 1 μg/mL APC-Streptavidin (Miltenyi; #130-106-791) in 50 μL FACS buffer for 30 minutes on ice was performed.
(§3) Cells were washed twice with ice-cold FACS buffer and analyzed in an Attune NxT flow cytometer (Thermo Fisher). Median fluorescence intensities (MFI) of the APC/Cy5-channel were calculated by Attune NxT software.
In the case of B1, the pIC50 fell in the range of 6.1 to 7 pic50.
Still for that read-out and setting: the result for B2 reads 6.1 to 7 pic50.
As for B3, the pIC50 lay in the range of 6.1 to 7 pic50.
Same read-out and setting: the result for B4 reads 6.1 to 7 pic50.
With B5, the pIC50 fell in the range of 6.1 to 7 pic50.
The same measure, in the same setting: with B6 the figure was 6.1 to 7 pic50; with B7, 6.1 to 7 pic50; with B8, 6.1 to 7 pic50.
Still for that read-out and setting: with B9 the figure was 6.1 to 7 pic50.

The target is the same in another assay. The assay can be described thus: FACS competition on HT-29 cells, competitor tracer 3BP-4149; category B = pIC50 7.1-8.0. On the procedure: as §1, §2, §3
In turn, B10 had a pIC50 of 7.1 to 8 pic50.
B11 gave a pIC50 of 7.1 to 8 pic50.
B12 returned a pIC50 of 7.1 to 8 pic50.
The same measure, in the same setting: the result for B13 reads 7.1 to 8 pic50.
With B14, the pIC50 lay in the range of 7.1 to 8 pic50.
On the same count and under the same terms, the result for B15 reads 7.1 to 8 pic50; that for B16, 7.1 to 8 pic50; that for B17, 7.1 to 8 pic50.
